The assay has as its target T1, FcγRIIa R (FcγRIIa, allotype with Arg at position 131), extracellular domain with C-terminal His tag (human, UniProt P12318 34-217).
T1 construct: extracellular domain; also called FcγRIIa R type; 2aR
T1 sequence (looked up): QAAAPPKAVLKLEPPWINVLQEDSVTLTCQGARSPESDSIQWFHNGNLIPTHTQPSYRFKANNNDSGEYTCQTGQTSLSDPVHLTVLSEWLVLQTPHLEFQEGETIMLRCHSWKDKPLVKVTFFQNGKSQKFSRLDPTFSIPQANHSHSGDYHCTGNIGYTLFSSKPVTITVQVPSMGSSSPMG
The assay is described as follows: SPR (Biacore), antibody captured on antigen peptide chip, FcγR as analyte; relative binding. On the procedure:
Analysis of interaction between objective antibody and the FcγR was carried out using Biacore T100 (GE Healthcare). HBS-EP+ (GE Healthcare) was used as the running buffer, and the measurement temperature was set to 25° C. Chips produced by immobilizing the antigen peptide by the amine coupling method to a Series S Sencor Chip CM5 (GE Healthcare), or alternatively, chips produced by allowing preliminarily biotinylated antigen peptides to interact with and immobilize onto a Series S Sensor Chip SA (certified) (GE Healthcare) were used. Antibodies of interest were captured onto an antigen peptide-immobilized chip, and allowed to interact to each FcγR diluted with running buffer. To regenerate and repeatedly use the chip, the antibodies captured on the chip were washed off by reacting 10 mM glycine-HCl, pH 1.5.

B1: GpH7-B3 variant P331_14T/GpL16-k0 (antibody, human IgG1, kappa)
heavy: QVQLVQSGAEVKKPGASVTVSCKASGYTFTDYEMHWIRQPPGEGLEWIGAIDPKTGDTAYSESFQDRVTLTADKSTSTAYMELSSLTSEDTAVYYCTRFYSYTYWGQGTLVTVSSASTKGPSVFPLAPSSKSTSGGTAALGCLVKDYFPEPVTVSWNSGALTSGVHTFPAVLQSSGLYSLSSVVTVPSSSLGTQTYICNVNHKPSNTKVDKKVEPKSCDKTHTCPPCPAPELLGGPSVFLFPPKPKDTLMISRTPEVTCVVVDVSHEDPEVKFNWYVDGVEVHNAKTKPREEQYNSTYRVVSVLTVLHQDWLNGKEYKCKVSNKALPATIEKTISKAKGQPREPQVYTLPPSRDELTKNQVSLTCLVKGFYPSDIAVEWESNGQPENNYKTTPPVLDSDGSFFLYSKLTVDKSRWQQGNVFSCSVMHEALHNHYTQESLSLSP
light: DIVMTQSPLSLPVTPGEPASISCQASESLVHSNRNTYLHWYLQKPGQSPQLLIYKVSNRFSGVPDRFSGSGSGTDFTLKISRVEAEDVGVYYCSQNTHVPPTFGQGTKVEIERTVAAPSVFIFPPSDEQLKSGTASVVCLLNNFYPREAKVQWKVDNALQSGNSQESVTEQDSKDSTYSLSSTLTLSKADYEKHKVYACEVTHQGLSSPVTKSFNRGEC
notes: also called Ho Ab
With B1, the Ho/Con_2aR is 80.8 % of GpH7-B3/GpL16-k0 (=100).

B2: GpH7-B3 variant P331_15Y/GpL16-k0 (antibody, human IgG1, kappa)
heavy: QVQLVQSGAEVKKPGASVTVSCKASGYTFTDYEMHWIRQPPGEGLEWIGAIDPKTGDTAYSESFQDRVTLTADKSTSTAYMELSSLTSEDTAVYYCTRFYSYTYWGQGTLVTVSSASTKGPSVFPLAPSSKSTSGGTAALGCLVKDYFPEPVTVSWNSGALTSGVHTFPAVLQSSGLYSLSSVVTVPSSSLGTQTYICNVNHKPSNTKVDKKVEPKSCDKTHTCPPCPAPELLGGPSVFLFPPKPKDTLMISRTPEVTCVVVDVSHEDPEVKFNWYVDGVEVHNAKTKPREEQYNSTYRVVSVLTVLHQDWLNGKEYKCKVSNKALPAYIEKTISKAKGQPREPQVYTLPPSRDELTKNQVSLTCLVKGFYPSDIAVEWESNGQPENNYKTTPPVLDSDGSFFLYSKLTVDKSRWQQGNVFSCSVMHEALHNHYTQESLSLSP
light: DIVMTQSPLSLPVTPGEPASISCQASESLVHSNRNTYLHWYLQKPGQSPQLLIYKVSNRFSGVPDRFSGSGSGTDFTLKISRVEAEDVGVYYCSQNTHVPPTFGQGTKVEIERTVAAPSVFIFPPSDEQLKSGTASVVCLLNNFYPREAKVQWKVDNALQSGNSQESVTEQDSKDSTYSLSSTLTLSKADYEKHKVYACEVTHQGLSSPVTKSFNRGEC
notes: also called Ho Ab
With B2, the Ho/Con_2aR was 105 % of GpH7-B3/GpL16-k0 (=100).

B3: GpH7-B3 variant S239_07I/GpL16-k0 (antibody, human IgG1, kappa)
heavy: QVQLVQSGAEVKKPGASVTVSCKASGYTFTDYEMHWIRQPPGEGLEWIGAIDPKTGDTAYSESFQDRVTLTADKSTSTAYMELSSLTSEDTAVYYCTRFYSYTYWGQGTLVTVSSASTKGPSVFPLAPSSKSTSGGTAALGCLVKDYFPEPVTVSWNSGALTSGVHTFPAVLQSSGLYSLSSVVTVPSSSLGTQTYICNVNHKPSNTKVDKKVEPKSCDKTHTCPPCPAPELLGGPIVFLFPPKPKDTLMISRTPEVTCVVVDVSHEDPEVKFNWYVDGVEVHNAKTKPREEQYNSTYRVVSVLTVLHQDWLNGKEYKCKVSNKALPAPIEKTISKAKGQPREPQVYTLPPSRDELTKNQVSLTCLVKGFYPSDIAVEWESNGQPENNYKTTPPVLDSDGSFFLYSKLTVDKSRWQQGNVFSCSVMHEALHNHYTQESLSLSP
light: DIVMTQSPLSLPVTPGEPASISCQASESLVHSNRNTYLHWYLQKPGQSPQLLIYKVSNRFSGVPDRFSGSGSGTDFTLKISRVEAEDVGVYYCSQNTHVPPTFGQGTKVEIERTVAAPSVFIFPPSDEQLKSGTASVVCLLNNFYPREAKVQWKVDNALQSGNSQESVTEQDSKDSTYSLSSTLTLSKADYEKHKVYACEVTHQGLSSPVTKSFNRGEC
notes: also called Ho Ab
For B3, the Ho/Con_2aR was 85.3 % of GpH7-B3/GpL16-k0 (=100).

B4: GpH7-B3 variant S239_18N/GpL16-k0 (antibody, human IgG1, kappa)
heavy: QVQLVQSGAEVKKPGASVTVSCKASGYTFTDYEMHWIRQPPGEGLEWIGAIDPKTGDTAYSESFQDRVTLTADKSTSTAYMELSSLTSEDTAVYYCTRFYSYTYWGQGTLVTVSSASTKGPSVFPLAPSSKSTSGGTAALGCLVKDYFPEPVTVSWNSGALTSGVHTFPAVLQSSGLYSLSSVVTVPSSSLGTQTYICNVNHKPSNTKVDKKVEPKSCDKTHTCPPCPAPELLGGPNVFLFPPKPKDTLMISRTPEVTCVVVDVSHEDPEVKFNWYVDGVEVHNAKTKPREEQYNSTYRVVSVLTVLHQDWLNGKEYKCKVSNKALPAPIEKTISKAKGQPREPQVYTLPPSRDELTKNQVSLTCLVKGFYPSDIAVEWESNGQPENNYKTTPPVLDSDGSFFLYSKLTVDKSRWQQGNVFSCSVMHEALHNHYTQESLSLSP
light: DIVMTQSPLSLPVTPGEPASISCQASESLVHSNRNTYLHWYLQKPGQSPQLLIYKVSNRFSGVPDRFSGSGSGTDFTLKISRVEAEDVGVYYCSQNTHVPPTFGQGTKVEIERTVAAPSVFIFPPSDEQLKSGTASVVCLLNNFYPREAKVQWKVDNALQSGNSQESVTEQDSKDSTYSLSSTLTLSKADYEKHKVYACEVTHQGLSSPVTKSFNRGEC
notes: also called Ho Ab
Consider B4, for which the Ho/Con_2aR is 103 % of GpH7-B3/GpL16-k0 (=100).

B5: GpH7-B3 variant Q295_10E/GpL16-k0 (antibody, human IgG1, kappa)
heavy: not shown
light: DIVMTQSPLSLPVTPGEPASISCQASESLVHSNRNTYLHWYLQKPGQSPQLLIYKVSNRFSGVPDRFSGSGSGTDFTLKISRVEAEDVGVYYCSQNTHVPPTFGQGTKVEIERTVAAPSVFIFPPSDEQLKSGTASVVCLLNNFYPREAKVQWKVDNALQSGNSQESVTEQDSKDSTYSLSSTLTLSKADYEKHKVYACEVTHQGLSSPVTKSFNRGEC
notes: also called Ho Ab
For B5, the Ho/Con_2aR is 99.2 % of GpH7-B3/GpL16-k0 (=100).

B6: GpH7-B3 variant S267_06M/GpL16-k0 (antibody, human IgG1, kappa)
heavy: not shown
light: DIVMTQSPLSLPVTPGEPASISCQASESLVHSNRNTYLHWYLQKPGQSPQLLIYKVSNRFSGVPDRFSGSGSGTDFTLKISRVEAEDVGVYYCSQNTHVPPTFGQGTKVEIERTVAAPSVFIFPPSDEQLKSGTASVVCLLNNFYPREAKVQWKVDNALQSGNSQESVTEQDSKDSTYSLSSTLTLSKADYEKHKVYACEVTHQGLSSPVTKSFNRGEC
notes: also called Ho Ab
B6: the Ho/Con_2aR was 102 % of GpH7-B3/GpL16-k0 (=100).

B7: GpH7-B3 variant S239_10E/GpL16-k0 (antibody, human IgG1, kappa)
heavy: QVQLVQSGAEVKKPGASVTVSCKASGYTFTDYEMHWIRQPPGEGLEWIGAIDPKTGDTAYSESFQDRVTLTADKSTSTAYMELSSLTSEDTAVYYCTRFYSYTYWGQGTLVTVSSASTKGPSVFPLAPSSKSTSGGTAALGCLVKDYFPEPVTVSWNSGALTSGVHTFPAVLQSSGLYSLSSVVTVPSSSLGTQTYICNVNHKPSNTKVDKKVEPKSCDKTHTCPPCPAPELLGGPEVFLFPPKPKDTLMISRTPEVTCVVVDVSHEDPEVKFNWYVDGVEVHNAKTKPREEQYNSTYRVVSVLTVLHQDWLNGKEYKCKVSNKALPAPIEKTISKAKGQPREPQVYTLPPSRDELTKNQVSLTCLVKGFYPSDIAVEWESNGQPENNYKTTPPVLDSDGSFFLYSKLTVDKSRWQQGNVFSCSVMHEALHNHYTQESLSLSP
light: DIVMTQSPLSLPVTPGEPASISCQASESLVHSNRNTYLHWYLQKPGQSPQLLIYKVSNRFSGVPDRFSGSGSGTDFTLKISRVEAEDVGVYYCSQNTHVPPTFGQGTKVEIERTVAAPSVFIFPPSDEQLKSGTASVVCLLNNFYPREAKVQWKVDNALQSGNSQESVTEQDSKDSTYSLSSTLTLSKADYEKHKVYACEVTHQGLSSPVTKSFNRGEC
notes: also called Ho Ab
For the molecule B7, the Ho/Con_2aR is 122 % of GpH7-B3/GpL16-k0 (=100).

B8: GpH7-B3 variant P331_20W/GpL16-k0 (antibody, human IgG1, kappa)
heavy: not shown
light: DIVMTQSPLSLPVTPGEPASISCQASESLVHSNRNTYLHWYLQKPGQSPQLLIYKVSNRFSGVPDRFSGSGSGTDFTLKISRVEAEDVGVYYCSQNTHVPPTFGQGTKVEIERTVAAPSVFIFPPSDEQLKSGTASVVCLLNNFYPREAKVQWKVDNALQSGNSQESVTEQDSKDSTYSLSSTLTLSKADYEKHKVYACEVTHQGLSSPVTKSFNRGEC
notes: also called Ho Ab
Consider B8, for which the Ho/Con_2aR was 102 % of GpH7-B3/GpL16-k0 (=100).

B9: GpH7-B3 variant P331_16H/GpL16-k0 (antibody, human IgG1, kappa)
heavy: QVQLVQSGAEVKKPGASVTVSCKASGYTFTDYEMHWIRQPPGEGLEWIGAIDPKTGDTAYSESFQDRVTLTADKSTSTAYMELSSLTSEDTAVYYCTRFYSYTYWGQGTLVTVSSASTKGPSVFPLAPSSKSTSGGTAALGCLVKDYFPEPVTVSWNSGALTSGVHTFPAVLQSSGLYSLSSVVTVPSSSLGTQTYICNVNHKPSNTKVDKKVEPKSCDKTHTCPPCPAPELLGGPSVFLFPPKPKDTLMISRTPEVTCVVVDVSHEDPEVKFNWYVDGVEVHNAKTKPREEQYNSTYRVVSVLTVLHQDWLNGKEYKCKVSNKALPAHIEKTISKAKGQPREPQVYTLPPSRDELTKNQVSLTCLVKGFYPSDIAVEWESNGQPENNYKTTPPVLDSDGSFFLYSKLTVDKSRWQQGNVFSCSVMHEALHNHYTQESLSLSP
light: DIVMTQSPLSLPVTPGEPASISCQASESLVHSNRNTYLHWYLQKPGQSPQLLIYKVSNRFSGVPDRFSGSGSGTDFTLKISRVEAEDVGVYYCSQNTHVPPTFGQGTKVEIERTVAAPSVFIFPPSDEQLKSGTASVVCLLNNFYPREAKVQWKVDNALQSGNSQESVTEQDSKDSTYSLSSTLTLSKADYEKHKVYACEVTHQGLSSPVTKSFNRGEC
notes: also called Ho Ab
For B9, the Ho/Con_2aR is 100 % of GpH7-B3/GpL16-k0 (=100).

B10: GpH7-B3 variant S239_06M/GpL16-k0 (antibody, human IgG1, kappa)
heavy: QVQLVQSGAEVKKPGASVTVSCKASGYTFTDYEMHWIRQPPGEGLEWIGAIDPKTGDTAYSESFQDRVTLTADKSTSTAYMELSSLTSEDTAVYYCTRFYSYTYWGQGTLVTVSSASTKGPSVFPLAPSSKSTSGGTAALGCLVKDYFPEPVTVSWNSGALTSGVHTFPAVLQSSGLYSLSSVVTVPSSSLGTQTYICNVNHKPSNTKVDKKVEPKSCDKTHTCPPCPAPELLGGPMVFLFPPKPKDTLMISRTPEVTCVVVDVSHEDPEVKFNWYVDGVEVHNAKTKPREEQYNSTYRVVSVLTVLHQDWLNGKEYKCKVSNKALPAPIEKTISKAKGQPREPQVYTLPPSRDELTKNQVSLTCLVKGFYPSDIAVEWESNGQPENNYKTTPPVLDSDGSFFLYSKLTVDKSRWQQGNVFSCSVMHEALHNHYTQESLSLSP
light: DIVMTQSPLSLPVTPGEPASISCQASESLVHSNRNTYLHWYLQKPGQSPQLLIYKVSNRFSGVPDRFSGSGSGTDFTLKISRVEAEDVGVYYCSQNTHVPPTFGQGTKVEIERTVAAPSVFIFPPSDEQLKSGTASVVCLLNNFYPREAKVQWKVDNALQSGNSQESVTEQDSKDSTYSLSSTLTLSKADYEKHKVYACEVTHQGLSSPVTKSFNRGEC
notes: also called Ho Ab
For the molecule B10, the Ho/Con_2aR was 82.9 % of GpH7-B3/GpL16-k0 (=100).

B11: GpH7-B3 variant S267_03V/GpL16-k0 (antibody, human IgG1, kappa)
heavy: not shown
light: DIVMTQSPLSLPVTPGEPASISCQASESLVHSNRNTYLHWYLQKPGQSPQLLIYKVSNRFSGVPDRFSGSGSGTDFTLKISRVEAEDVGVYYCSQNTHVPPTFGQGTKVEIERTVAAPSVFIFPPSDEQLKSGTASVVCLLNNFYPREAKVQWKVDNALQSGNSQESVTEQDSKDSTYSLSSTLTLSKADYEKHKVYACEVTHQGLSSPVTKSFNRGEC
notes: also called Ho Ab
As for B11, the Ho/Con_2aR was 115 % of GpH7-B3/GpL16-k0 (=100).

B12: GpH7-B3 variant S239_14T/GpL16-k0 (antibody, human IgG1, kappa)
heavy: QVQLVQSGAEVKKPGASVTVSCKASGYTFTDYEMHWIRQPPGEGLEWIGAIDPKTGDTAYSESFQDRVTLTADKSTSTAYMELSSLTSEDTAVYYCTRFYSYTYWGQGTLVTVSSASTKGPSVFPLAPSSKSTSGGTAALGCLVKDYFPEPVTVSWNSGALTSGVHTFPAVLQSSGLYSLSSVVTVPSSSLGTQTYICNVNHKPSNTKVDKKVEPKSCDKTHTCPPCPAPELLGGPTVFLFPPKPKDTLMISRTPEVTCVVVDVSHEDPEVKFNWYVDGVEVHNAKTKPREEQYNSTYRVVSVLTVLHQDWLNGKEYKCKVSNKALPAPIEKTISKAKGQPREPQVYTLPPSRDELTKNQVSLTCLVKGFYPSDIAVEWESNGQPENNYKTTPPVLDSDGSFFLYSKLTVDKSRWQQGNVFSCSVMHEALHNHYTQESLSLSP
light: DIVMTQSPLSLPVTPGEPASISCQASESLVHSNRNTYLHWYLQKPGQSPQLLIYKVSNRFSGVPDRFSGSGSGTDFTLKISRVEAEDVGVYYCSQNTHVPPTFGQGTKVEIERTVAAPSVFIFPPSDEQLKSGTASVVCLLNNFYPREAKVQWKVDNALQSGNSQESVTEQDSKDSTYSLSSTLTLSKADYEKHKVYACEVTHQGLSSPVTKSFNRGEC
notes: also called Ho Ab
As to B12, the Ho/Con_2aR was 92.3 % of GpH7-B3/GpL16-k0 (=100).

B13: GpH7-B3 variant S267_09D/GpL16-k0 (antibody, human IgG1, kappa)
heavy: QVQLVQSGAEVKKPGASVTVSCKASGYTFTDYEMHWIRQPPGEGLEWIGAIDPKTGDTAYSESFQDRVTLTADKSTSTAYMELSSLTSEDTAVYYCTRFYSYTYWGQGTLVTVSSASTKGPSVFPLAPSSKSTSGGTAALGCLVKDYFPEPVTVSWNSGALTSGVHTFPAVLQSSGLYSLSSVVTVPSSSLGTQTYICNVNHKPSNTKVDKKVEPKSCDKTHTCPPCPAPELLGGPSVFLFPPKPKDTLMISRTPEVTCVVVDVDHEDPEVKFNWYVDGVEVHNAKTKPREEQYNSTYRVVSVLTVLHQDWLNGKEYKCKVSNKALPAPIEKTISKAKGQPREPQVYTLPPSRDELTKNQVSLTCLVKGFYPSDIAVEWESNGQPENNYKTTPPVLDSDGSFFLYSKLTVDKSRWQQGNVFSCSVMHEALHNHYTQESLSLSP
light: DIVMTQSPLSLPVTPGEPASISCQASESLVHSNRNTYLHWYLQKPGQSPQLLIYKVSNRFSGVPDRFSGSGSGTDFTLKISRVEAEDVGVYYCSQNTHVPPTFGQGTKVEIERTVAAPSVFIFPPSDEQLKSGTASVVCLLNNFYPREAKVQWKVDNALQSGNSQESVTEQDSKDSTYSLSSTLTLSKADYEKHKVYACEVTHQGLSSPVTKSFNRGEC
notes: also called Ho Ab
For B13, the Ho/Con_2aR is 167 % of GpH7-B3/GpL16-k0 (=100).

B14: GpH7-B3 variant Q295_06M/GpL16-k0 (antibody, human IgG1, kappa)
heavy: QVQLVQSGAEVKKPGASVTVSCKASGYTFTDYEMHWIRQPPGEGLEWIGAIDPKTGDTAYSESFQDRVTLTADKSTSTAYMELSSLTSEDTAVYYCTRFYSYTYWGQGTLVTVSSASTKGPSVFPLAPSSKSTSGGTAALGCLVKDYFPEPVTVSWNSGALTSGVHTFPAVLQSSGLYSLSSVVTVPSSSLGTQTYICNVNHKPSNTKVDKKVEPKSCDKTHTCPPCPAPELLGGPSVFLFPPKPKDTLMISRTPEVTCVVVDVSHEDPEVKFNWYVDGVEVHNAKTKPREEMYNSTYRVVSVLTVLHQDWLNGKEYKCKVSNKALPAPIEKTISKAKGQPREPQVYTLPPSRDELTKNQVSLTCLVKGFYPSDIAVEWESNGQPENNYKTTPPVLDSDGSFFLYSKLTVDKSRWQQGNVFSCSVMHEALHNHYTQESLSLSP
light: DIVMTQSPLSLPVTPGEPASISCQASESLVHSNRNTYLHWYLQKPGQSPQLLIYKVSNRFSGVPDRFSGSGSGTDFTLKISRVEAEDVGVYYCSQNTHVPPTFGQGTKVEIERTVAAPSVFIFPPSDEQLKSGTASVVCLLNNFYPREAKVQWKVDNALQSGNSQESVTEQDSKDSTYSLSSTLTLSKADYEKHKVYACEVTHQGLSSPVTKSFNRGEC
notes: also called Ho Ab
As to B14, the Ho/Con_2aR is 93.9 % of GpH7-B3/GpL16-k0 (=100).

B15: GpH7-B3 variant P331_18N/GpL16-k0 (antibody, human IgG1, kappa)
heavy: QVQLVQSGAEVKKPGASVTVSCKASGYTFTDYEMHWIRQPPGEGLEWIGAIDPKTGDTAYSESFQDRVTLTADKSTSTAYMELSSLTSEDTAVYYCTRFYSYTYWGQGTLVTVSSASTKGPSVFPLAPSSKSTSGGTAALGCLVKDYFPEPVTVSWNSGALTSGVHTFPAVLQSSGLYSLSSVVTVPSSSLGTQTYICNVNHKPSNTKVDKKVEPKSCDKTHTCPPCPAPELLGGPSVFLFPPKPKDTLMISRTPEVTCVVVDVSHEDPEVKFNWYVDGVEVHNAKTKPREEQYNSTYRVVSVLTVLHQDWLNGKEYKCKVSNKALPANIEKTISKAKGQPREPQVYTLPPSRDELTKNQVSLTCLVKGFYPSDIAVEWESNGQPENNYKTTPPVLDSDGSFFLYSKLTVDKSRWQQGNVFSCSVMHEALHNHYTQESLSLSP
light: DIVMTQSPLSLPVTPGEPASISCQASESLVHSNRNTYLHWYLQKPGQSPQLLIYKVSNRFSGVPDRFSGSGSGTDFTLKISRVEAEDVGVYYCSQNTHVPPTFGQGTKVEIERTVAAPSVFIFPPSDEQLKSGTASVVCLLNNFYPREAKVQWKVDNALQSGNSQESVTEQDSKDSTYSLSSTLTLSKADYEKHKVYACEVTHQGLSSPVTKSFNRGEC
notes: also called Ho Ab
As for B15, the Ho/Con_2aR was 76.9 % of GpH7-B3/GpL16-k0 (=100).

B16: GpH7-B3 variant S239_08L/GpL16-k0 (antibody, human IgG1, kappa)
heavy: not shown
light: DIVMTQSPLSLPVTPGEPASISCQASESLVHSNRNTYLHWYLQKPGQSPQLLIYKVSNRFSGVPDRFSGSGSGTDFTLKISRVEAEDVGVYYCSQNTHVPPTFGQGTKVEIERTVAAPSVFIFPPSDEQLKSGTASVVCLLNNFYPREAKVQWKVDNALQSGNSQESVTEQDSKDSTYSLSSTLTLSKADYEKHKVYACEVTHQGLSSPVTKSFNRGEC
notes: also called Ho Ab
As for B16, the Ho/Con_2aR is 106 % of GpH7-B3/GpL16-k0 (=100).

The record behind these values is patent US20150344570A1 (published 2015).
